The source of these data is paper PMC10160029, “Engineered repeat proteins as scaffolds to assemble multi-enzyme systems for efficient cell-free biosynthesis” (Nature Communications, 2023).

By Kd is commonly meant the equilibrium constant for the complex coming apart. High values mean weaker binding, low ones tighter binding. The stoichiometry N is a count of units in the complex or per binding partner. As usually defined, the Km is the substrate concentration at which the rate is half of its maximum. Broadly, the Vmax is the top rate of the reaction or transport when substrate is in excess. A word on the kcat: it is the number of substrate molecules converted per active site and unit of time at saturation. The kcat/Km is the second-order rate constant that governs catalysis at low substrate concentration.

One data set has as its target T1, TRAP1-3.
T1 construct: designed fusion of TRAP1 and TRAP3 TPR modules, synthetic gene in pET-28b(+), E. coli C41, Ni-NTA; His-tag kept in assembly; mass 32,621 (kDa [sic])
The data set is described as follows: fluorescence anisotropy of NADH. Format: binding. Conditions: PBS (150 mM NaCl, 50 mM phosphate) pH 7.4, 25 °C, 1 µM NADH titrated with 0-100 µM TRAP1-3; one-site fit. On the technique in general: Polarisation of emitted light reports the rotation of a fluorescent probe.

Data set [1] deals with FDH1: formate dehydrogenase from Candida boidinii with peptide-1 (MEEVV) fused to its C-terminus (Candida boidinii). Description: SEC; each tagged enzyme alone; molecular weight estimated from the elution.
Substrate in data set [2]: O=CO
Description: purified protein. Format: biochemical, [Candida] boidinii. The note with it: saturating NAD+, 25 mM sodium phosphate pH 7.0, 30 °C, FDH1 bound alone to TRAP1-3, apparent.

Substrate in data set [3]: NC(=O)c1ccc[n+]([C@@H]2O[C@H](COP(=O)(O)OP(=O)(O)OC[C@H]3O[C@@H](n4cnc5c(N)ncnc54)[C@H](O)[C@@H]3O)[C@@H](O)[C@H]2O)c1
The data set is described as follows: purified protein. Format: biochemical, [Candida] boidinii. Conditions: saturating formate, 25 mM sodium phosphate pH 7.0, 30 °C, FDH1 bound alone to TRAP1-3, apparent.

Substrate in data set [4]: NC(=O)C1=CN([C@@H]2O[C@H](COP(=O)(O)OP(=O)(O)OC[C@H]3O[C@@H](n4cnc5c(N)ncnc54)[C@H](O)[C@@H]3O)[C@@H](O)[C@H]2O)C=CC1
The data set is described as follows: purified protein. The data set is classed as biochemical, Geobacillus stearothermophilus. The note with it: saturating pyruvate, 500 mM ammonium chloride, 25 mM potassium phosphate pH 8.0, 30 °C, AlaDH3 bound alone to TRAP1-3, apparent.

Substrate in data set [5]: CC(=O)C(=O)O
The data set is described as follows: purified protein. The data set is classed as biochemical, Geobacillus stearothermophilus. Conditions: saturating NADH, 500 mM ammonium chloride, 25 mM potassium phosphate pH 8.0, 30 °C, AlaDH3 bound alone to TRAP1-3, apparent, substrate inhibition fit.

Data set [6] concerns the molecule itself. Description: SEC; each tagged enzyme alone; molecular weight estimated from the elution.

`NC(=O)C1=CN([C@@H]2O[C@H](COP(=O)(O)OP(=O)(O)OC[C@H]3O[C@@H](n4cnc5c(N)ncnc54)[C@H](O)[C@@H]3O)[C@@H](O)[C@H]2O)C=CC1` [NADH] came in with a Kd on TRAP1-3 of 34.9 µM.
In the case of “FDH1: formate dehydrogenase from Candida boidinii with peptide-1 (MEEVV) fused to its C-terminus (enzyme)”, the stoichiometry N in data set [1] is 2.

B1: FDH1@TRAP ([Candida] boidinii) (protein)
chain: MKIVLVLYDAGKHAADEEKLYGCTENKLGIANWLKDQGHELITTSDKEGGNSVLDQHIPDADIIITTPFHPAYITKERIDKAKKLKLVVVAGVGSDHIDLDYINQTGKKISVLEVTGSNVVSVAEHVLMTMLVLVRNFVPAHEQIINHDWEVAAIAKDAYDIEGKTIATIGAGRIGYRVLERLVPFNPKELLYYDYQALPKDAEEKVGARRVENIEELVAQADIVTINAPLHAGTKGLINKELLSKFKKGAWLVNTARGAICVAEDVAAALESGQLRGYGGDVWFPQPAPKDHPWRDMRNKYGAGNAMTPHYSGTTLDAQTRYAEGTKNILESFFTGKFDYRPQDIILLNGEYITKAYGKHDKK
notes: FDH with C-terminal peptide-1 tag MEEVV, pET-28b(+), E. coli C41, Ni-NTA, His-tag removed by TEV; mass 45,137 (kDa [sic]); dimer; 5DNA as structure used for illustration
For B1, in “purified protein [2]”, the Km worked out at 2420 ± 1070 µM, the Vmax worked out at 0.95 µmol/min/mg, the catalytic constant (kcat) is 0.7 ± 0.2 s⁻¹ and the catalytic efficiency (kcat/Km) came to 290 M⁻¹ s⁻¹. Besides, in the data set “purified protein [3]”, the Km was 270 ± 100 µM, the Vmax was found to be 1.23 µmol/min/mg, the kcat came out at 0.9 ± 0.3 s⁻¹ and the kcat/Km stood at 3500 M⁻¹ s⁻¹.

B2: AlaDH3@TRAP (Geobacillus stearothermophilus) (protein)
chain: MKIGIPKEIKNNENRVAITPAGVMTLVKAGHEVYVETEGGAGSGFSDSEYEKAGAADRCRTWRDAWTAEMVLKVKEPLAREFRYFRPGLILFTYLHLAAAERVTKAVVEQKVVGIAYETVQLANGSLPLLTPMSEVAGRMSVQVGAQFLEKPHGGKGILLGGVPGVRRGKVTIIGGGTAGTNAAKIGVGLGADVTILDINAERLRELDDLFGDHVTTLMSNSYHIAECVRESDLVVGAVLIPGAKAKLVTEEMVRSMTPGSVLVDIAIDQGGIFETTDRVTTHDDPTYVKHGVVHYAVANMPGAVPRTSTFALTNVTIPYALQIANKGYRAGCLDNPALLKGINTLDGHIVYEAVAAAHNMPYTDVHSLLHG
notes: AlaDH with C-terminal peptide-3 tag MRRVW, pET-28b(+), E. coli C41, Ni-NTA, His-tag removed by TEV; mass 44,323 (kDa [sic]); hexamer
On to B2, for which, in the data set “purified protein [4]”, the Km was determined as 360 ± 70 µM, the Vmax was found to be 94.3 µmol/min/mg, the turnover number (kcat) was 69.9 ± 4.7 s⁻¹ and the kcat/Km amounted to 190000 M⁻¹ s⁻¹. Also, in “purified protein [5]”, the Km stood at 390 ± 50 µM, the Vmax is 41.3 µmol/min/mg, the kcat was found to be 30.6 ± 1.9 s⁻¹ and the kcat/Km worked out at 79000 M⁻¹ s⁻¹.

B3: AlaDH3: alanine dehydrogenase from Bacillus stearothermophilus with peptide-3 (MRRVW) fused to its C-terminus (enzyme)
chain: MKIGIPKEIKNNENRVAITPAGVMTLVKAGHDVYVETEAGAGSGFSDSEYEKAGAVIVPNAEDAWTAEMVLKVKEPLAEEFRYFRPGLILFTYLHLAAAEALTKALVEQKVVGIAYETVQLANGSLPLLTPMSEVAGRMSVQVGAQFLEKPHGGKGILLGGVPGVRRGKVTIIGGGTAGTNAAKIAVGLGSDVTILDINAERLRELDDLFGDHVTTLMSNSYHIAECVRESDLVVGAVLIPGAKAPKLVTEEMVRSMTPGSVLVDIAIDQGGIFETTDRVTTHDDPTYVKHGVVHYAVANMPGAVPRTSTFALTNVTIPYALQIANKGYRAACLDNPALLKGINTLDGHIVYEAVAAAHNMPYTDVHSLLHGMRRVW
Turning to B3, in data set [6], the “stoichiometry N” value is 6.
